Data: publication PMC6868385

Target: GFP-tagged BLM (Bloom helicase) (human) (UniProt P54132)
Test: single-molecule fluorescence intensity

GFP-tagged BLM (Bloom helicase), P54132 1-1417 (enzyme; other documents disagree on this pair)
stoichiometry N (molecules of GFP–BLM per complex): 3.1
